{"source": "paper PMC5679657", "about": "“KSHV inhibits stress granule formation by viral ORF57 blocking PKR activation” (PLoS Pathogens, 2017)", "binders": {"B1": {"name": "KSHV ORF57, untagged (pcDNA-ORF57) (natural protein)", "chain": "MVQAMIDMDIMKGILEDSVSSSEFDESRDDETDAPTLEDEQLSEPAEPPADERIRGTQSAQGIPPPLGRIPKKSQGRSQLRSEIQFCSPLSRPRSPSPVNRYGKKIKFGTAGQNTRPPPEKRPRRRPRDRLQYGRTTRGGQCRAAPKRATRRPQVNCQRQDDDVRQGVSDAVKKLRLPASMIIDGESPRFDDSIIPRHHGACFNVFIPAPPSHVPEVFTDRDITALIRAGGKDDELINKKISAKKIDHLHRQMLSFVTSRHNQAYWVSCRRETAAAGGLQTLGAFVEEQMTWAQTVVRHGGWFDEKDIDIILDTAIFVCNAFVTRFRLLHLSCVFDKQSELALIKQVAYLVAMGNRLVEACNLLGEVKLNFRGGLLLAFVLTIPGMQSRRSISARGQELFRTLLEYYRPGDVMGLLNVIVMEHHSLCRNSECAAATRAAMGSAKFNKGLFFYPLS", "notes": "KSHV ORF57, untagged, expressed from pcDNA-ORF57; also called untagged ORF57; source: HEK293, transfected, in lysate"}, "B2": {"name": "KSHV ORF57-Flag (wild type, pVM7) (natural protein)", "chain": "B1 chain", "notes": "KSHV ORF57 (mRNA transcript accumulation protein, MTA), wild type, expressed from pVM7; also called ORF57 wt; ORF57-wt-Flag; source: HEK293 or HeLa, transfected, in lysate"}}, "key": {"[1]": {"target": "T1, PKR ΔPK-Myc-Flag (aa 1-270) (UniProt P19525 1-270)", "T1 construct": "PKR (EIF2AK2) aa 1-270, kinase domain deleted; made from pPKR-FL; also called N-terminal RBM domain of PKR; source: HEK293, transfected, in lysate", "T1 sequence (P19525 1-270, stated change not applied)": "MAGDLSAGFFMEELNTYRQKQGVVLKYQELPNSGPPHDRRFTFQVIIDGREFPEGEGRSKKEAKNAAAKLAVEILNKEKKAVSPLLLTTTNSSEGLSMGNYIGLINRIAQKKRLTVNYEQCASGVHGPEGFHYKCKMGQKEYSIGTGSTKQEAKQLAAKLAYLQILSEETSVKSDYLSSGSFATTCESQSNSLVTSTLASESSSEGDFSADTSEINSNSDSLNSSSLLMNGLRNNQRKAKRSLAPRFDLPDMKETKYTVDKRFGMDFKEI", "experiment": "co-IP; HEK293 extract with Myc-Flag-tagged PKR FL, ΔPK or ΔRBM mixed with extract with untagged ORF57, RNase A/T1-digested; IP with anti-Flag for PKR; blot anti-ORF57", "conditions": "partners not purified"}, "[2]": {"target": "T2, phosphorylated full-length PKR-Myc-Flag from arsenite-treated cells (UniProt P19525 1-551, phosphorylated; phospho-Thr 451 detected with anti-phosphorylated PKR (Thr 451))", "T2 construct": "protein kinase R (PKR, EIF2AK2), full length, from pPKR-FL, phosphorylated in arsenite-treated cells; Other phosphorylated sites are not determined in this experiment; also called p-PKR; phosphorylated FL PKR; source: HEK293, transfected, treated with arsenite for 30 min, in lysate", "T2 sequence (P19525 whole entry)": "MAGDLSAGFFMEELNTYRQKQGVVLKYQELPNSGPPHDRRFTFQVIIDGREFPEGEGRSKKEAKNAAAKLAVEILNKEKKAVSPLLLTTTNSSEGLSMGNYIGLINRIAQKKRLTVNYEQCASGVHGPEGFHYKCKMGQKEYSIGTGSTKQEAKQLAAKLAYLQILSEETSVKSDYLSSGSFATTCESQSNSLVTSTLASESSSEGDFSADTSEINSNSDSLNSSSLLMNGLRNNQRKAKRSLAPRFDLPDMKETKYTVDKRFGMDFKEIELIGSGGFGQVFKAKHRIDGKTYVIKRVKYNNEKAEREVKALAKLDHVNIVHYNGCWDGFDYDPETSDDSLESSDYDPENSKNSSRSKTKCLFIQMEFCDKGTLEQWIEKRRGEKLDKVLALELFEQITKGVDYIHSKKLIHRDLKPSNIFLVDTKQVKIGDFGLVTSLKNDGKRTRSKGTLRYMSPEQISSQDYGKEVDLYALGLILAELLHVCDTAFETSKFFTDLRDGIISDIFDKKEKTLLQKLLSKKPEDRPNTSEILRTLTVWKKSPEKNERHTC", "experiment": "co-IP; extract of HEK293 cells with PKR-Myc-Flag, untreated or treated with arsenite for 30 min, mixed with HEK293 extract with ORF57-Flag, RNase A/T1-digested; pulled down with anti-Myc beads; blots anti-Flag, anti-pPKR (Thr 451), anti-ORF57", "conditions": "partners not purified"}}}
{"binder": "B1", "values": [{"measurement": "fold binding relative to FL PKR", "setting": "[1]", "value": "~6.5", "unit": "fold"}]}
{"binder": "B2", "values": [{"measurement": "fold binding relative to PKR from untreated cells", "setting": "[2]", "value": "~3", "unit": "times"}]}
